In patent publication US20090005257A1 (published 2009):
Changes are numbered by the printed parent chain. Numbers in names are those of the source.

B1: anti-HSA VH clone #1 (other)
VH: EVQLLESGGGLVQPGGSLRLSCAASGFTFDLYDMSWVRQAPGKGLEWVSSIVNSGVRTYYADSVKGRFTISRDNSKNTLYLQMNSLRAEDTAVYYCAKLNQSYHWDFDYWGQGTLVTVSS
notes: From library 4G (human VH3, DP47 germline gene + JH4 segment)
B2: anti-HSA VH clone #6 (other)
VH: EVQLLESGGGLVQPGGSLRLSCAASGFTFHRYSMSWVRQAPGKGLEWVSTILPGGDVTYYADSVKGRFTISRDNSKNTLYLQMNSLRAEDTAVYYCAKQTPDYMFDYWGQGTLVTVSS
notes: As clone #1
B3: anti-HSA VH clone #10 (other)
VH: B2 VH with H30D, R31E, S33N, G54H, V57R, T100D, D102L, M104R
notes: As clone #1; the one clone recovered with the heat step
B4: anti-HSA VH clone #4 (other)
VH: B2 VH with H30Y, R31D, S33N, L52T, P53H, G54T, D56G, T100N, D102S, M104Q
notes: As clone #1
B5: anti-HSA VH clone #2 (other)
VH: EVQLLESGGGLVQPGGSLRLSCAASGFTFSDYRMSWVRQAPGKGLEWVSTIISNGKFTYYADSVKGRFTISRDNSKNTLYLQMNSLRAEDTAVYYCAKQDWMYMFDYWGQGTLVTVSS
notes: As clone #1
B6: anti-HSA VH clone #3 (other)
VH: EVQLLESGGGLVQPGGSLRLSCAASGFTFSKYWMSWVRQAPGKGLEWVSSIDFMGPHTYYADSVKGRFTISRDNSKNTLYLQMNSLRAEDTAVYYCAKGRTSMLPMKGKFDYWGQGTLVTVSS
notes: As clone #1
B7: pA-C36 (other)
VH: EVQLLESGGGLVQPGGSLRLSCAASGVNVSHDSMTWVRQAPGKGLEWVSAIRGPNGSTYYADSVKGRFTISRDNSKNTLYLQMNSLRAEDTAVYYCASGARHADTERPPSQQTMPFWGQGTLVTVSS
notes: Frameworks of DP47d, ranges as for HEL4; also called pA-36
B8: pA-C59 (other)
VH: EVQLLESGGGLVQPGGSLRLSCAASGDSISDDYMAWVRQAPGKGLEWVSSIDDKNGSTYYADSVKGRFTISRDNSKNTLYLQMNSLRAEDTAVYYCAGGDGQAHKVDYWGQGTLVTVSS
notes: Frameworks of DP47d, ranges as for HEL4
B9: DP47 quadruple mutant F27D/F29V/S35G/Y32E (other, name in Kabat numbering)
VH: EVQLLESGGGLVQPGGSLRLSCAASGDTVSSEAMGWVRQAPGKGLEWVSAISGSGGSTYYADSVKGRFTISRDNSKNTLYLQMNSLRAEDTAVYYCAKSYGAFDYWGQGTLVTVSS
B10: DP47 S30N/A33D (other, name in Kabat numbering)
VH: B9 VH with D27F, V29F, S30N, E32Y, A33D, G35S
notes: also called A33D/S30N
B11: HEL4 (other)
VH: EVQLLESGGGLVQPGGSLRLSCAASGFRISDEDMGWVRQAPGKGLEWVSSIYGPSGSTYYADSVKGRFTISRDNSKNTLYLQMNSLRAEDTAVYYCASALEPLSEPLGFWGQGTLVTVSS
notes: Human VH dAb against hen egg lysozyme; also called dAb HEL4; Fd-myc-HEL4
B12: pA-C76 (other)
VH: EVQLLESGGGLVQPGGSLRLSCAASGDNVISDDMSWVRQAPGKGLEWVSTINGPSGSTYYADSVKGRFTISRDNSKNTLYLQMNSLRAEDTAVYYCAANGEDTDMLDMWGDRSAALKSWGQGTLVTVSS
notes: as for B8
B13: pA-C13 (other)
VH: EVQLLESGGGLVQPGGSLRLSCAASGDMVNDKDMSWVRQAPGKGLEWVSSISTENGSTYYADSVKGRFTISRDNSKNTLYLQMNSLRAEDTAVYYCAGVRDEVAMGENPDLSYWGQGTLVTVSS
notes: From the library made by diversifying the CDR loops of DP47d; frameworks of DP47d, ranges as for HEL4; also called Clone 13
B14: pA-C47 (other)
VH: EVQLLESGGGLVQPGGSLRLSCAASGYNITDENMAWVRQAPGKGLEWVSTIAADNGSTYYADSVKGRFTISRDNSKNTLYLQMNSLRAEDTAVYYCATTEAAGVEEDNVRSWGQGTLVTVSS
notes: as for B8
B15: DP47 F27D/F29V (other, name in Kabat numbering)
VH: B9 VH with E32Y, G35S
B16: DP47 F27D/F29V/Y32D/S35G (other, name in Kabat numbering)
VH: B9 VH with E32D
notes: kept apart as printed
B17: DP47 S53P/G54D (other, name in Kabat numbering)
VH: B9 VH with D27F, V29F, E32Y, G35S, S54P, G55D
B18: TAR1-5-19 (other)
VL: DIQMTQSPSSLSASVGDRVTITCRASQSIDSYLHWYQQKPGKAPKLLIYSASELQSGVPSRFSGSGSGTDFTLTISSLQPEDFATYYCQQVVWRPFTFGQGTKVEIKR
notes: Vκ1 single domain (dAb) specific for TNF-α; also called PEP1-5-19
B19: TAR1-5-19-Y49D (other)
VL: B18 VL with Y49D
B20: TAR1-5-19-Y49N (other)
VL: B18 VL with Y49N
B21: TAR2-10-27 (other)
VH: EVQLLESGGGLVQPGGSLRLSCAASGFTFEWYWMGWVRQAPGKGLEWVSAISGSGGSTYYADSVKGRFTISRDNSKNTLYLQMNSLRAEDAAVYYCAKVKLGGGPNFGYRGQGTLVTVSS
notes: Human VH3 single domain (dAb) against human TNFR1, tested as soluble protein purified on protein A beads
B22: TAR2-10-27-F27D (other)
VH: B21 VH with F27D
notes: Soluble dAb
B23: anti-HSA VH clone #7 (other)
VH: EVQLLESGGGLVQPGGSLRLSCAASGFTFWKYNMAWVRQAPGKGLEWVSTILGEGNNTYYADSVKGRFTISRDNSKNTLYLQMNSLRAEDTAVYYCAKTMDYKFDYWGQGTLVTVSS
notes: As clone #1
B24: TAR2-10-27-Y32D (other)
VH: B21 VH with Y32D

Biological target: T1, human serum albumin (human, UniProt P02768 25-609)
T1 construct: also called HSA
T1 sequence (P02768 25-609 limits assumed): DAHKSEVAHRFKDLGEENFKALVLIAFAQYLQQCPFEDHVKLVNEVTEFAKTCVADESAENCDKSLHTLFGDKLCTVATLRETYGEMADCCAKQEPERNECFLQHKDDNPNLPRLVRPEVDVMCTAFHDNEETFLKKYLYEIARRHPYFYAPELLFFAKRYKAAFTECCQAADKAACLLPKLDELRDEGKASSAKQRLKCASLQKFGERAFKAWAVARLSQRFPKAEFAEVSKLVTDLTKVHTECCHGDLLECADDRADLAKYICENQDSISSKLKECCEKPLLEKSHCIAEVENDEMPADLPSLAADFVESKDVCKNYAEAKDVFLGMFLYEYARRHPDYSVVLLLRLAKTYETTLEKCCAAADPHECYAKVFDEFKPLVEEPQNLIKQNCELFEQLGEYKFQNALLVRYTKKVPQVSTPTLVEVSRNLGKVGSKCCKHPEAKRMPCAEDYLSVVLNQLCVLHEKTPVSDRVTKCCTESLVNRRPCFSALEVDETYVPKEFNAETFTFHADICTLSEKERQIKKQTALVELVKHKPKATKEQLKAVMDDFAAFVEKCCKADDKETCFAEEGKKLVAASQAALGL
Experiment: phage ELISA on HSA, purified phage, 1/3 dilution series
Description: (§1) A phage ELISA was performed according to the protocol of Section 5 with the following modifications. 1×10¹⁰ phage were either heat-treated (10 minutes at 80° C. in 100 μL aliquots) or left untreated. The samples were centrifuged for 10 minutes at 14,000 rpm at 4° C. and the supernatants were added to ELISA wells coated with HSA (with a dilution series of ⅓). After developing the ELISA, the OD450 nm values (y-axis) for each heat treated/unheated phage pair were plotted against the phage number α-axis) and the %-refoldability was calculated.

First: B1
Second: B2
The “phage number, +Heat” value of the first is higher: 1e+10 phage for the first, 9.75e+09 phage for the second.

B3 and B4 are the same in “phage number, +Heat” value: 1e+10 phage for the first, 1e+10 phage for the second.

B5 and B6 are the same in “phage number, +Heat” value: 1e+10 phage for the first, 1e+10 phage for the second.

First: B1
Second: B2
The “phage number, -Heat” value of the first is higher: 1.5e+08 phage for the first, 2.1e+07 phage for the second.

Compared with B3, B4 is lower in “phage number, -Heat” value: 1e+10 phage for the first, 5.7e+08 phage for the second.

Compared with B5, B6 is lower in “phage number, -Heat” value: 1.3e+09 phage for the first, 5.5e+07 phage for the second.

Biological target: T2, protein A (UniProt P38507 37-477)
T2 construct: also called pA
Experiment: phage ELISA on protein A, heated 80 C against unheated, titration (Section 5)
Description: (§2) After biotinylation of the phage, for each clone, a 100 μl sample of phage was transferred to a thin-wall PCR tube (and the remaining biotinylated phage was kept on ice). The tube was placed in a PCR apparatus for incubation at 80° C. during 10 min (temperature of cover lid: 85° C.). After heating, the tube was rapidly cooled down to 4° C. in the PCR apparatus.
(§3) ELISA plates were coated and blocked as described in Section 4. The samples were transferred to the empty wells of coated/blocked ELISA plates, and incubated for 2 hours at room temperature. Unbound phage was then removed by washing the wells 6-ties with PBS. For detection, Str-HRP (from a 1 mg/ml stock in PBS) were diluted 1/2000 in PBS supplemented with 2% v/v TWEEN 20 (Polyoxyethylensorbitan monolaurate; for protein A-based ELISA) or 2% w/v BSA (for protein L-based ELISA), and 100 μl of the resulting solution was added to each ELISA well. After incubation for 1 hour at room temperature, the unbound conjugate was removed by washing the wells 6-times with PBS. For colorimetric reaction, a 10 mg/ml solution of TMB (tetramethylbenzidine) was diluted 100-fold in a buffer of 0.1 M sodium acetate, pH 6.0. Next, hydrogen peroxyde was added (0.4 ul per ml of buffer/TMB, and 100 ul of this solution was added to each ELISA well. After color (blue) developed, the reaction was stopped by adding 50 μl of 1 M sulfuric acid per well (color turns to yellow). The optical density was recorded at 450 nm.

B7 and B8 are the same in “% refolding (protein A binding retained after heating)” value: 25% for the first, 25% for the second.

Compared with B9, B10 is lower in “% refolding (protein A binding retained after heating)” value: 29.5% for the first, 2.11% for the second.

First: B11
Second: B12
The “% refolding (protein A binding retained after heating)” value of the first is lower: 18.5% for the first, 35% for the second.

Going from B13 to B14, the “% refolding (protein A binding retained after heating)” value falls from 35% to 25%.

Biological target: T2, protein A
Experiment: phage ELISA on protein A, heated 80 C against unheated, three data points
Description: as §2, §3
These clones were characterized for refoldability on phage (according to the protocol of Section 5, but with three data points being taken) and in solution.

Compared with B7, B15 is lower in “Refoldability on phage (protein A binding retained after heating)” value (“Refoldability on phage” for short): 80% for the first, 62% for the second.

Compared with B16, B10 is higher in “Refoldability on phage” value: 80% for the first, 81% for the second.

Going from B17 to B11, the “Refoldability on phage” value rises from 19% to 82%.

Biological target: T2, protein A
Experiment: phage ELISA on protein A, multivalent phage 5x10^11 TU/ml, 80 C 10 min against untreated
Description: The ELISA wells were coated overnight at 4° C. with one of the following ligands: 10 μg/ml of protein A in PBS, 10 μg/ml of mAb 9E10 in PBS, or 3 mg/ml of HEL in 0.1 M NaHCO₃ buffer, pH 9.6. After blocking the wells with PBS containing 2% Tween-20 (PBST), a dilution series of phage in PBST was incubated for 2 h. After washing with PBS, bound phage were detected as follows. […] In assays for binding to protein A, the phage (4×10¹⁰ TU/ml in PBS) was first biotinylated at 4° C. with biotin-NHS (Perbio) (50 μM final concentration) and detected by sequential addition of streptavidin-horseradish peroxidase conjugate (1 μg/ml) (Sigma-Aldrich) in PBST, and substrate as above.

In the case of B11, the “fold reduction of binding after heating” value is reported as 3 fold.

Biological target: T3, TNF-α (UniProt P01375 77-233)
T3 construct: also called tumour necrosis factor
T3 sequence (P01375 77-233 limits assumed): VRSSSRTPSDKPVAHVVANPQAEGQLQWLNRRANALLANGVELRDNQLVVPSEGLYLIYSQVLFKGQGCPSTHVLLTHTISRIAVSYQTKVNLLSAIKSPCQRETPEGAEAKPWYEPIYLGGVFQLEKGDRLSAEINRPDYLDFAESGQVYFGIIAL
Experiment: RBA-ELISA: dAb competes with binding of soluble TNF-α to immobilised TNF-α receptor

Compared with B18, B19 is 6.7-fold higher in IC50: 30 nM for the first, 200 nM for the second. The first is the more potent here.

B20 showed an IC50 of 900 nM.

Biological target: T4, TNF receptor 1 Fc fusion protein (human, UniProt P19438 30-211)
T4 construct: Bought; also called recombinant TNF receptor 1 (p55); human Tumor Necrosis Factor Receptor 1; not shown: Fc part of the bought fusion protein (captured by an anti-human Fc antibody)
T4 sequence (looked up): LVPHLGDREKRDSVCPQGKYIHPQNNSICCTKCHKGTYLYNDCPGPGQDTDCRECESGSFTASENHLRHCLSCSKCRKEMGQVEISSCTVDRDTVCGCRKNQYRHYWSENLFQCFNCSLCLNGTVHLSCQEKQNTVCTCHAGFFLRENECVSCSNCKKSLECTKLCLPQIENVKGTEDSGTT
Experiment: receptor binding ELISA: dAb mixed with TNF (10 ng/ml) and added to TNFR1-Fc captured by anti-human Fc; bound TNF detected with biotinylated anti-TNF antibody; blocked ligand TNF

B21 and B22 are within 1.5-fold of each other in “IC50 (read off the curve)” value: about 5 nM for the first, about 6 nM for the second.

Biological target: T1, human serum albumin
Experiment: phage ELISA on HSA, heated 80 C 10 min against unheated
Description: as §1

Compared with B1, B2 is lower in “Refoldability (HSA binding retained after heating)” value: 1.5% for the first, under 0.2% for the second.

First: B3
Second: B4
The “Refoldability (HSA binding retained after heating)” value of the first is higher: about 100% for the first, 9.1% for the second.

In the case of B6, the “Refoldability (HSA binding retained after heating)” value is reported as 0.55%.

Biological target: T1, human serum albumin
Experiment: phage ELISA on HSA, heated against unheated
Description: The ELISA wells were coated overnight at 4° C. with one of the following ligands: 10 μg/ml of protein A in PBS, 10 μg/ml of mAb 9E10 in PBS, or 3 mg/ml of HEL in 0.1 M NaHCO₃ buffer, pH 9.6. After blocking the wells with PBS containing 2% Tween-20 (PBST), a dilution series of phage in PBST was incubated for 2 h. After washing with PBS, bound phage were detected as follows. In assays for binding to REL, phage was detected directly using a conjugate of horseradish peroxidase with an anti-M13 monoclonal antibody (Amersham) using 3,3′,5,5′-tetramethylbenzidine as substrate. In assays for binding to protein A, the phage (4×10¹⁰ TU/ml in PBS) was first biotinylated at 4° C. with biotin-NHS (Perbio) (50 μM final concentration) and detected by sequential addition of streptavidin-horseradish peroxidase conjugate (1 μg/ml) (Sigma-Aldrich) in PBST, and substrate as above. In assays for binding to human serum albumin (USA) (Sigma, coating at 10 μg/ml in PBS), the ELISA was performed in PBS supplemented with 2% skim-milk powder (PBSM) and bound phage were detected in two steps using a rabbit anti-fd bacteriophage monoclonal antibody (Sigma, 1/1000 dilution) and goat anti-rabbit IgG serum conjugated with horseradish peroxidase (Sigma, 1/1000 dilution) and substrate as above.

B1 and B2 cannot be ordered by “% HSA binding signal retained after heating” value (“% HSA binding signal retained” for short): under 10% for the first, under 10% for the second.

B4 and B5 cannot be ordered by “% HSA binding signal retained” value: under 10% for the first, under 10% for the second.

B23 and B6 cannot be ordered by “% HSA binding signal retained” value: under 10% for the first, under 10% for the second.

Biological target: T3, TNF-α
Experiment: phage ELISA on TNF-α coated wells, heated 80 C 10 min against unheated

Going from B18 to B19, the “% refolding (TNF-α binding retained after heating)” value rises from 80% to 93%.

With B20 the “% refolding (TNF-α binding retained after heating)” value was 98%.

Biological target: T5, hen egg lysozyme (hen, UniProt P00698 19-147)
T5 construct: also called HEL; hen egg white lysozyme
T5 sequence (P00698 19-147): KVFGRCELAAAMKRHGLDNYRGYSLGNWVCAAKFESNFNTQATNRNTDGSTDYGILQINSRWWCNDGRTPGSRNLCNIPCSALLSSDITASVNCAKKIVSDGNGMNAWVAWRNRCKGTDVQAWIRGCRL
Experiment: phage ELISA on immobilised HEL
Description: Phage ELISA assays. The ELISA wells were coated overnight at 4° C. with one of the following ligands: 10 μg/ml of protein A in PBS, 10 μg/ml of mAb 9E10 in PBS, or 3 mg/ml of HEL in 0.1 M NaHCO₃ buffer, pH 9.6. After blocking the wells with PBS containing 2% Tween-20 (PBST), a dilution series of phage in PBST was incubated for 2 h. After washing with PBS, bound phage were detected as follows. In assays for binding to REL, phage was detected directly using a conjugate of horseradish peroxidase with an anti-M13 monoclonal antibody (Amersham) using 3,3′,5,5′-tetramethylbenzidine as substrate.

B11: binds.

Biological target: T3, TNF-α
Experiment: RBA-ELISA

B19 and B20 fall in the same range of “fold reduction of binding against TAR1-5-19” value: 6 to 20 fold for the first, 6 to 20 fold for the second.

Biological target: T6, human Tumor Necrosis Factor Receptor 1 (TNFR1) expressed on HeLa cells (human, UniProt P19438 30-455)
T6 sequence (looked up): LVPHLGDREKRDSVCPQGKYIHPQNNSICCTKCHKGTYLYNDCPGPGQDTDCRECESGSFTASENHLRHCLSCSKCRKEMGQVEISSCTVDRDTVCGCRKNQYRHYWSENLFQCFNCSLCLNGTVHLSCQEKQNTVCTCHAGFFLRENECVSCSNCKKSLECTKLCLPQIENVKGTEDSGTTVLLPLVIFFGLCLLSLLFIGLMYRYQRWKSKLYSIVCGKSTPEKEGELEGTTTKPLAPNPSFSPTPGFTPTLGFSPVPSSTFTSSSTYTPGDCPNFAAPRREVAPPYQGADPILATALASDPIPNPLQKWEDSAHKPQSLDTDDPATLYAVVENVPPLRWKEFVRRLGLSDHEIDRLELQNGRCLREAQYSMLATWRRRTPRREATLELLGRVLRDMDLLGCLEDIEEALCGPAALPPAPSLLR
Experiment: cell-based or functional assay

Going from B21 to B24, the “IC50 (read off the curve), inhibition of TNF-induced IL-8 secretion of HeLa cells” value falls from about 10 nM to about 5 nM (2-fold).
